For ten sequences, protein production results are on record in a protein production outcome set (Wang et al. 2014).

The data set is described as follows: label from the status in PepcDB records.
Turning to “MSPMTIPSEMKALLLVGDGYTKTPSGSALEAMEPYLEQGRIAVPAPGPSQVLIKVNLASINPSDVAFIKGQYGQPRVKGRPAGFEGVGTIVAGGDEPYAKSLVGKRVAFATGLSNWGSWAEYAVAEAAACIPLLDTVRDEDGAAMIVNPLTAIAMFDIVKQEGEKAFVMTAGASQLCKLIIGLAKEEGFRPIVTVRRDEQIALLKDIGAAHVLNEKAPDFEATLREVMKAEQPRIFLDAVTGPLASAIFNAMPKRARWIIYGRLDPDATVIREPGQLIFQHKHIEGFWLSEWMRQFKERRGPAILEAQKRFSDGRWSTDVTAVVPLAEAIAWVPAELTKPNGKVFIRP”, the protein production entry was “not failed”. As for “MSPNLFIHPRQMPQILLALLGKNLVEIARQFFSARDSNPFFTPAGLTRIARLGRSAVLIGKSKPVPAGKRPTGSKPVHSLPPDRVDPENHARLEVAETDRFPLVKESAPPASFFVEQSPSPAFGEEGNGACKGSGIGGRCVLCVGGRAVLYPEYRRVVEASGGKLVIYRNLPQEPGHHLPVLLDQADMVVCPLDCVNHTAFFTVKRYCRRSGKPCVLLDRSNLSTFCKGIATLAGLYTSPAPARSDQSKRRCPASPEEGQFKDYLEHHHHHH”, the protein production result was “failed”. On to “MSPRRSAAEAQATRGRILGRAAEIASEEGLDGITIGRLAEELEMSKSGVHKHFGTKETLQISTLDKAFVDFWHRVVEPALAEPPGLRRLRAVCANSVGYLEEPLLPGGCLLTAALSEYDGRPGRVRDAVAEVWSRWREQLRADLTAAVDKGELPAGFDVEQALFEIVAAGLALNAAMQLQHDRTAADRARRAIERALAQS”, for which the protein production result was “not failed”. With “MSPTHKPMPEPTEVFTLPRWKITRWLTDTDRDVPTDIKRALIGSLFGTLSIFVGGVVNTLLVAALIAWHIQRPAFFAWFGLECLICIARISILVSARRRARAARSTHTDLHLALSLAWAFSVGLGTYLSITSGNWLAAALACLSSAAMIGGICFRNFGAPRMSGLMILLALGPCCLGAIVAREPLFLLTLIQLPVYVASMTSASFRMHAMLVATMQSERENAHRARHDSMTGLLNRGSLLAEIRATMECNAISPLRSALLYLDLDGFKRINDVHGHGCGDELLQQVADRMRATVPEGTHVSRIGGDEFVILLNLHESDDVQVLAQRLLRDIAVPYLLANGETVAIGVSIGITHISPNGQSADAVLNVADRALYVAKARGKGCFHFSEAVQAL”, the protein production result is recorded as “failed”. On to “MSPTLSILIPVYKRDCRRLLEELYKQAEELSVGYEIILGDDCSGEPYTSQYIAYEQEGLCRLVSAEENMGAGRLRNRLAEEAQGEQLLILDSDTLPASPDFIERYLRHASGTTVVCGGFVYPPKSTNPLRQRYGAEVESRSAEERARKPHSGFISMAFMIPRKQMLATGFPPNMGMGYEDILFGERLRQAGIPILHIDNPVEHYHCDTAEGFLATTRSYLDNLYCHREELAELVSLLRAYNLLKRLHLMRMVAALWPLIRSSLEKQLTGAKPSLLLFSLYKLLYVASLSLVCAEKS”, for which the protein production entry is “failed”.

As to “MSQAFPGPHGAPATGHVPVLRLGEVLLVTLQGDLHDSTAQQLQEDLAETIVRSGATGVVIDVSGVEIVDSFLGRILAEIAGQTGLLAARTVLVGMRPAVAITLVELGLTLPGVHTALSTEVAMELLRQQAPSSRFGGLRQESQ”, the protein production result is given as “not failed”.

For “MSQDNYFSRMLRGEAPVPAVAGTLGGVIRAVDLEAGSLESDYVATDAFLNPVGQVQGGMLGAMLDDVTAMLVTATLEDGASCSTLNLNLSFLRPAQAGLLRGRARLERRGRNVCNVVGELSQDGKLVATATATCMVARRA”, the protein production entry was “not failed”. Next, “MSQEAFENKLYANLEAVIDPELGVDIVNLGLVYDVTADENNNAVITMTMTSIGCPMAGQIVSDVKKVLSTNVPEVNEIEVNVVWNPPWSKERMSRMAKIALGIRD”: “not failed”. Consider “MSQFWYSEETASRLAEELLQQAGEHGRIACLSAPSVYQKLKQLESVRSDGVSAVLLEFDRRFAAYGDEFVFYDYNNPLCLPEDLLPQSFDIVIADPPYLSEECLSKVTLTVKHLTKGKILLCTGAIMEEHAGKLLDLKMCSFLPRHNHNLANEFRCYVNYESRLLS”, for which the protein production entry was “failed”. With “MSQIEAVFFDCDGTLVDSEVICSRAYVTMFRQFDITLELTEVFRRFKGVKLYEIIDTISKEHGVALAKAELEPVYRAEVARLFDTELEAIAGANTLLESIKTPMCVVSNGPVSKMQHSLGKLGMLHHFPDLLFSGYDIQRWKPDPALMLHAANAMKVNVEKCILVDDSSAGAQSGIAAGMEVFYFCADPHNKPIDHPNVTTFTDLAQLPGLWKAR”, the protein production result is reported as “failed”.
